Here are results for three molecules from patent publication US20260001937A1, “NOVEL RECOMBINANT FIBRINOGEN VARIANTS FOR FIBRIN SEALANTS FOR SURGICAL WOUND CARE” (Julius-Maximilians-Universität Würzburg, priority 2022, published 2026).

In data set [1] the test system is ExpiCHO-S cells. Description: α-chain degradation of recombinant fibrinogen during CHO cell expression (SDS-PAGE, in-gel digest MS). It is filed as cell-based, Chinese hamster. To be noted: no protease inhibitor added. The method, then:
Fibrinogen variants were expressed according to the user manual (Thermo Scientific, Waltham, USA). Briefly, ExpiCHO-S™ cells (Thermo Scientific, Waltham, USA) were cultured to a final density of 10×10^6 cells/mL. Plasmids encoding for the different fibrinogen variants (0.8 μg/mL of culture) as well as ExpiFectamine™ CHO (Thermo Scientific, Waltham, USA) were diluted in 5 mL of cold OptiPro™ medium (Thermo Scientific, Waltham, USA) and incubated for 5 min at RT. The ExpiFectamine™ CHO/DNA complex was transferred to the shaker flask and incubated at 37° C. and 8% CO2 and 130 rpm. After 24 h of incubation, ExpiFectamine™ CHO Enhancer and ExpiFectamine™ CHO Feed (Thermo Scientific, Waltham, USA) were added to the culture flask. The culture flasks were transferred to an incubator at 32° C. and 8% CO2 with shaking at 130 rpm. This step was repeated after 4 days of incubation. After another incubation step of up to 7 days at 32° C. and 8% CO2 and 130 rpm cells were harvested and centrifuged at 3000 rpm for 15 minutes. […]
Purified proteins and conjugates were analyzed using Tris-glycine SDS-PAGE either with or without the addition of β-mercaptoethanol as described before.58 Gels were stained with Coomassie Brilliant Blue G250 and documented using FluorChem FC2 imaging system (Protein Simple, Santa Clara, USA). […]

The target of a further data set is T1, FXIIIa (Homo sapiens, UniProt P00488).
T1 construct: purchased CSL Behring Fibrogammin
T1 sequence (P00488 39-732 limits assumed): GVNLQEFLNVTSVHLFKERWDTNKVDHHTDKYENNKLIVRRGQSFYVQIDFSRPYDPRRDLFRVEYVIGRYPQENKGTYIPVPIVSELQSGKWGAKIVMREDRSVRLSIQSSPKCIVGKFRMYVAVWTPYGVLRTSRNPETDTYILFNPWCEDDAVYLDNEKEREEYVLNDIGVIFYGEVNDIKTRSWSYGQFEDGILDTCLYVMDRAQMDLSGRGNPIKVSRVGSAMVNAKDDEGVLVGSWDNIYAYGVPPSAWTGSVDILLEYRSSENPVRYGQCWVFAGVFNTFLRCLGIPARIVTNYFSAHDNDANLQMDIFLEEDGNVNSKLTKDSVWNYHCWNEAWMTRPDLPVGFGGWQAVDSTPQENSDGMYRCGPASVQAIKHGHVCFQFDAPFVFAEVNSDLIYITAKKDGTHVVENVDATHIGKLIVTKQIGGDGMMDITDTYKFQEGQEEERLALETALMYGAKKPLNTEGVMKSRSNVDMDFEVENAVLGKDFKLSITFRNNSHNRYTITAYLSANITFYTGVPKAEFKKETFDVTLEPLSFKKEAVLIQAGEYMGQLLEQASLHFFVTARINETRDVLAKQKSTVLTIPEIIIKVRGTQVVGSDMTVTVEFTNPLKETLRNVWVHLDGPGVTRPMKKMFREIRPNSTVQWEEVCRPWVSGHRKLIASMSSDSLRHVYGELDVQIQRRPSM
Description: FXIIIa-catalyzed cross-linking of fibrin (SDS-PAGE, reducing). It is filed as biochemical. The method, then: FIG. 27: FXIIIa-catalyzed cross-linking of fibrinogen. Crosslinking of His-rFbgH433R435 by rFXIIIa was examined with SDS-PAGE, under reducing conditions. Fibrinogen (0.1 mg/mL) was mixed with FXIIIa (0.5 mU/mL) and thrombin (0.05 U/mL), and the reaction was incubated for the specified time at 37° C. The reduced fibrin chains (α, β, γ, cross-linked γ-γ dimer) are indicated on the right side of the gel.
To examine cross-linking of fibrin, fibrinogen (0.1 mg/mL) was incubated at 37° C. with FXIIIa ([…]) and human-thrombin (final concentration, 0.05 U/mL) in Tris-buffer and CaCl2 (10 mM). The reactions were stopped at various times by addition of an equal volume of sodium dodecyl sulfate (SDS) sample buffer with 2-mercaptoethanol and incubation (5 min) at 90° C. Samples were separated on SDS-polyacrylamide gel electrophoresis (SDS-PAGE) and stained with Coomassie brilliant blue.

The target in a further data set is thrombin (Homo sapiens, UniProt P00734). Description: Thrombin-catalyzed fibrin polymerization, turbidity at 350 nm. The note with it: fibrinogen 0.1 mg/mL, thrombin 0.05 U/mL. It is filed as biochemical. The method, then:
FIG. 26: Thrombin-catalyzed fibrin polymerization. Polymerization of fibrinogen (0.1 mg/mL) was initiated by the addition of thrombin (0.05 U/mL), factor XIIIa (Fibrogammin®, CSL Behring) (50 mU/ml) as well as CaCl2 (10 mM). The change in turbidity at 350 nm was followed with time (0-3600 sec). Representative polymerization curves of plasma Fibrinogen (square) and His-rFbgH433R435 (triangle).
Turbidity experiments were conducted on a Tecan Infinite M Plex plate reader at 37° C. A 96-well plate with a final volume of 100 μl per well was used and was experiments were performed in triplicate. The Thrombin-catalyzed fibrin polymerization of fibrinogen (0.1 mg/mL) was initiated by the addition of thrombin (0.05 U/mL), factor Xllla (Fibrogammin®, CSL Behring; 50 mU/ml) as well as CaCl2 (10 mM). The change in turbidity at 350 nm was followed over time (0-3600 sec).

Data set [2] relates to ExpiCHO-S cells. The note with it: literature report (ref. 51); cited from earlier work.
Data set [3] relates to ExpiCHO-S cell supernatant (degradation of fibrinogen α-chain). Description: Screening of inhibitors for Fbg degradation in ExpiCHO-S cell supernatant (SDS-PAGE). It is filed as biochemical, Chinese hamster. The note with it: commercial human Fbg 3.3 mg/mL, 37 C, several days, Aprotinin 50 μg/mL, EDTA 4 mM, 1,10 Phenanthroline 1 mM, UK 370106 100 μM. The method, then: ExpiCHO-S cells were cultured to a density of 6×10^6 cells/mL. Afterwards, cells were centrifuged for 4 min at 1000 rpm at RT and the supernatant was collected. Commercially available fibrinogen (SigmaAldrich) was mixed with the supernatant to a final concentration of 3.3 mg/mL and a volume of 200 μl. The mixture incubated at 37° C. and 750 rpm and samples were taken at 0, 24 and 48 h. For the screening the different inhibitors were added to the mixture (final concentrations: PMSF: 1 mM; Aprotinin: 50 μg/mL; GM6001: 25 μM; EDTA: 4 mM; 1,10 Phenanthroline: 1 mM; UK 370106: 100 μM). As control fibrinogen was incubated in 10 mM Tris/HCl, 150 mM NaCl (pH 7.5) under the same conditions. For the visualization of fibrinogen degradation, 20 μL of the mixtures were analyzed using SDS-PAGE.
Commercially available human Fbg was incubated with the supernatant taken from the CHO cells used for the expression and incubated the protein at 37 C for several days.

The next data set concerns the target T2, His-rFbgH433R435.
T2 chain 1: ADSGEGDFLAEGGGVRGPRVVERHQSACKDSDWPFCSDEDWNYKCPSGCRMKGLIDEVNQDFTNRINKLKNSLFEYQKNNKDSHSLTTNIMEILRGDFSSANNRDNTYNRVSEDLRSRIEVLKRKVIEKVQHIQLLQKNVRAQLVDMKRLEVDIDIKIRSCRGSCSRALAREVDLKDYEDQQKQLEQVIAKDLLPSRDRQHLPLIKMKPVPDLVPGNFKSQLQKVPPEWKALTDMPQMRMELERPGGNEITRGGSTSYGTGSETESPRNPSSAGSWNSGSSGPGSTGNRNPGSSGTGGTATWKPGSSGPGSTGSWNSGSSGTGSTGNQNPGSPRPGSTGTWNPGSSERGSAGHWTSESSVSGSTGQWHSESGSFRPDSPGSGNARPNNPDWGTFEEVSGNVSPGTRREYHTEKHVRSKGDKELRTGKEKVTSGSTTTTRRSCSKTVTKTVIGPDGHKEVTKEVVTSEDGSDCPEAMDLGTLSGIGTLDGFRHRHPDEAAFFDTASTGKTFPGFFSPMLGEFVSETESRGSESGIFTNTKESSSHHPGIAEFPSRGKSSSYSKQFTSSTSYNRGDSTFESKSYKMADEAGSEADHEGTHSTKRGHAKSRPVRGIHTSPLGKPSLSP
T2 chain 2: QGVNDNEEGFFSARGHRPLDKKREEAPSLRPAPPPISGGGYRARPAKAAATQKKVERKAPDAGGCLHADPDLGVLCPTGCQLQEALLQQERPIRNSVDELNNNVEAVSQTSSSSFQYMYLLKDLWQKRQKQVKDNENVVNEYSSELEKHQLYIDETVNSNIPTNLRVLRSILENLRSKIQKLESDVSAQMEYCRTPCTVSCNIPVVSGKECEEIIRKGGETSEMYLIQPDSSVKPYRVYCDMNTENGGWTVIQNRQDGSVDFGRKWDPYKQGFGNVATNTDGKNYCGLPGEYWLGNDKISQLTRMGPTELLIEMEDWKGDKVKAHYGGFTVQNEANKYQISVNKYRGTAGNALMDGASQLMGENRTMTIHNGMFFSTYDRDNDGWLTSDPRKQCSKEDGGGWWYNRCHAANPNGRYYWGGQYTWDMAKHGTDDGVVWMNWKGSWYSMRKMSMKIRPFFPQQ
T2 chain 3: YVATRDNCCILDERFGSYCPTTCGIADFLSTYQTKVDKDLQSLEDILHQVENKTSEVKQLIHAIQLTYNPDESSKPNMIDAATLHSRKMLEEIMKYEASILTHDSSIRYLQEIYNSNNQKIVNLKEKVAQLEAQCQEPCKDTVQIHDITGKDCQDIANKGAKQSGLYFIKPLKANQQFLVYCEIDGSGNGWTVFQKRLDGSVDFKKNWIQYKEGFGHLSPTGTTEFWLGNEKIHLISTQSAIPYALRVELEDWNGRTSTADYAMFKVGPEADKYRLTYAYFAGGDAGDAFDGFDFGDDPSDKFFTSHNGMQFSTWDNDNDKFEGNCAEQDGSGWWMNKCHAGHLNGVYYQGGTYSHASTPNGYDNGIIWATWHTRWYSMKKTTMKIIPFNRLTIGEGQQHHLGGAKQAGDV

On to “His-rFbgH433R435: Aα, Bβ- and γ-chain fibrinogen; α-chain L433H, T435R (SEQ ID 79), γ-chain K88H, K111H, K382H, K399H (SEQ ID 80)”, for which the “α-chain degradation during CHO cell protein expression” value in the data set on ExpiCHO-S cells [1] is recorded as “not detectable”. Besides, in the data set with FXIIIa (conclusion from polymerization and cross-linking experiments), the “formation of functional fibrin gels” value was “forms functional fibrin gels”. The “incubation time after which cross-linked γ-γ-dimer bands were visible” value in the data set with FXIIIa (fibrinogen 0.1 mg/mL, FXIIIa 0.5 U/mL, thrombin 0.05 U/mL, CaCl2 10 mM, 37° C.) was 5 min. In addition, in the data set with thrombin (factor XIIIa 50 mU/ml, CaCl2 10 mM, 37° C., 0-3600 sec), the “thrombin-induced fibrin polymerization compared with control (pFbg)” value is on record as “slightly reduced”. Besides, in the data set with thrombin (turbidity 350 nm), the “absorption in fibrin polymerization compared with control (pFbg)” value is “comparable” and the “lag time of fibrin polymerization compared with control (pFbg)” value is reported as “similar”.
aprotinin: the “effect of inhibitor addition during CHO cell expression on proteolytic degradation of the fibrinogen α-chain” value in the data set with ExpiCHO-S cells [2] is listed as “did inhibit proteolytic degradation”. The “state of the Fbg α-chain after incubation with CHO cell supernatant plus inhibitor” value in data set [3] is given as “truncated α-chain is also visible”.

B1: factor XIIIa (Fibrogammin, CSL Behring) (protein)
chain: T1 sequence (P00488 39-732 limits assumed)
With B1, the “FXIIIa-catalyzed cross-linking of gamma-chains, reducing SDS-PAGE” value with His-rFbgH433R435 is “the cross-linked γ-γ-dimer bands of rFbgH433R435 were visible after 5 min, indicating rapid lateral linkage”.
